US20230302148A1, “PHARMACEUTICAL COMPOSITION COMPRISING LONG-ACTING CONJUGATE OF TRIPLE GLUCAGON/GLP-1/GIP RECEPTOR AGONIST” (HANMI PHARM. CO., LTD., priority 2020, published 2023)
Where a chain is given by its changes, count along the chain named. Bridges are numbered along the chain shown (N, C = ends). Where no end group is shown, it is not given here. [ ]: non-standard residue; d: D form. Aib = CC(C)(N)C(=O)O

T1: human GIP receptor (human, UniProt P48546 22-466)
T1 sequence (looked up): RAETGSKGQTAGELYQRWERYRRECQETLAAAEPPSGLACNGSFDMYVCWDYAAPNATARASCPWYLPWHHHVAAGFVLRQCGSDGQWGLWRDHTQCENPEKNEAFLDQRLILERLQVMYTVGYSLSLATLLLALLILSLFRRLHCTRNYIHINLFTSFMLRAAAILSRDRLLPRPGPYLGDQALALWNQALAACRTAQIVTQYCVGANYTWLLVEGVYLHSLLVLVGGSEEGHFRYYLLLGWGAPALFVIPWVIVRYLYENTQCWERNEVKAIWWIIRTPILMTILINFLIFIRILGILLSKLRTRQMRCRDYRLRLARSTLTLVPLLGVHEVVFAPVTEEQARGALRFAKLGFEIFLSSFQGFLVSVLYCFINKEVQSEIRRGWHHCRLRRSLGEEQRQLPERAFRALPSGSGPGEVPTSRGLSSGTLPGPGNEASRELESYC

B1: triple agonist of SEQ ID NO: 35 (peptide)
peptide: H[Aib]QGTFTSDYSIAMDEIHQKDFVNWLLNTKC
modifications: bridge 16-20
B2: triple agonist of SEQ ID NO: 1 (peptide)
peptide: H[Aib]QGTFTSDVSSYLDGQAAKEFIAWLVKGC
B3: triple agonist of SEQ ID NO: 42 (peptide)
peptide: Y[Aib]QGTFTSDYSKYLDEKRAKEFVQWLLDHHPSSGQPPPSC
modifications: bridge 16-20
B4: triple agonist of SEQ ID NO: 37 (peptide)
peptide: H[Aib]QGTFTSDYSKYLDECRQKEFVQWLLNGGPSSGAPPPSG
modifications: bridge 16-20
B5: triple agonist of SEQ ID NO: 41 (peptide)
peptide: H[Aib]QGTFTSDKSKYLDECAAQDFVQWLLDGGPSSGAPPPS
B6: triple agonist of SEQ ID NO: 4 (peptide)
peptide: H[Aib]QGTFTSDVSSYLLGQQQKEFIAWLVKGC
B7: triple agonist of SEQ ID NO: 57 (peptide)
peptide: H[Aib]QGTFTSDYSIAMDEIHQKDFVNWLLNTC
modifications: bridge 16-20
B8: triple agonist of SEQ ID NO: 56 (peptide)
peptide: H[Aib]QGTFTSDYSKYLDEKRQKEFVNWLLAQC
modifications: bridge 16-20
B9: triple agonist of SEQ ID NO: 6 (peptide)
peptide: H[Aib]QGTFTSDVSSYLDGQAAKEFVAWLLKGC
B10: triple agonist of SEQ ID NO: 5 (peptide)
peptide: H[Aib]QGTFTSDVSSYLLGQQQKEFIAWLVKGGGPSSGAPPPSC
B11: triple agonist of SEQ ID NO: 44 (peptide)
peptide: HGQGTFTSDCSKQLDGQAAQEFVAWLLAGGPSSGAPPPS
B12: triple agonist of SEQ ID NO: 48 (peptide)
peptide: B11 peptide with Q13Y, A18R, E21D, A24N
B13: triple agonist of SEQ ID NO: 45 (peptide)
peptide: B11 peptide with Q13Y, L14M, E21D
B14: triple agonist of SEQ ID NO: 46 (peptide)
peptide: B11 peptide with Q13Y, G16E, A18H
B15: triple agonist of SEQ ID NO: 47 (peptide)
peptide: B11 peptide with Q13Y, A18R

target: human GLP-1 receptor (human, UniProt P43220 24-463); experiment: cell-based or functional assay

Compared with B1, B2 is lower in “In vitro activity relative to native peptide (%) vs. GLP-1” value: 7.5% for the first, 3.2% for the second.

First: B3
Second: B4
The “In vitro activity relative to native peptide (%) vs. GLP-1” value of the first is lower: 33.9% for the first, 236% for the second.

Going from B5 to B6, the “In vitro activity relative to native peptide (%) vs. GLP-1” value falls from 34.3% to 8.5%.

Going from B7 to B8, the “In vitro activity relative to native peptide (%) vs. GLP-1” value rises from 11.7% to 57.9%.

Compared with B9, B10 is higher in “In vitro activity relative to native peptide (%) vs. GLP-1” value: 17% for the first, 42.1% for the second.

First: B11
Second: B12
The “In vitro activity relative to native peptide (%) vs. GLP-1” value of the first is lower: 1.3% for the first, 1.5% for the second.

First: B13
Second: B14
The “In vitro activity relative to native peptide (%) vs. GLP-1” value of the first is higher: 6.6% for the first, 1.4% for the second.

B15 was tested, and the “In vitro activity relative to native peptide (%) vs. GLP-1” value was 2.4%.

target: T1, human GIP receptor; experiment: cell-based or functional assay

Going from B1 to B2, the “In vitro activity relative to native peptide (%) vs. GIP” value falls from 1.3% to < 0.1%.

Going from B3 to B4, the “In vitro activity relative to native peptide (%) vs. GIP” value falls from 7.8% to 2.2%.

B5 and B6 cannot be ordered by “In vitro activity relative to native peptide (%) vs. GIP” value: < 0.1% for the first, < 0.1% for the second.

Compared with B7, B8 is higher in “In vitro activity relative to native peptide (%) vs. GIP” value: 0.3% for the first, 0.8% for the second.

B9 and B10 cannot be ordered by “In vitro activity relative to native peptide (%) vs. GIP” value: < 0.1% for the first, < 0.1% for the second.

B11 and B12 cannot be ordered by “In vitro activity relative to native peptide (%) vs. GIP” value: < 0.1% for the first, < 0.1% for the second.

B13 and B14 cannot be ordered by “In vitro activity relative to native peptide (%) vs. GIP” value: < 0.1% for the first, < 0.1% for the second.

For B15, the “In vitro activity relative to native peptide (%) vs. GIP” value was < 0.1%.

target: human GCG receptor (human, UniProt P47871 26-477); experiment: cell-based or functional assay
Sequence (P47871 26-477): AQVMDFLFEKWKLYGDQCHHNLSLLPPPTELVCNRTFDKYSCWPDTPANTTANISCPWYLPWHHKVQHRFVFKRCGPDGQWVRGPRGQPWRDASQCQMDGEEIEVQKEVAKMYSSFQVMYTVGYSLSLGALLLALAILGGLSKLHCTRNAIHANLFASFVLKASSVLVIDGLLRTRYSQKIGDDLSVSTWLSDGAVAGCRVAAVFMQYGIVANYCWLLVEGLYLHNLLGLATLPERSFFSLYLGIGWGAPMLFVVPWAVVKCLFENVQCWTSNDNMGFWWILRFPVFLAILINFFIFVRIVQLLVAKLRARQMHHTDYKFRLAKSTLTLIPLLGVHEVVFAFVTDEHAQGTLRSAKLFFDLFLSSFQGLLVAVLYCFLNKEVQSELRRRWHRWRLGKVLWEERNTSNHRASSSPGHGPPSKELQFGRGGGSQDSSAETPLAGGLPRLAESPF

B1 and B2 cannot be ordered by “In vitro activity relative to native peptide (%) vs. Glucagon” value: < 0.1% for the first, < 0.1% for the second.

First: B3
Second: B4
The “In vitro activity relative to native peptide (%) vs. Glucagon” value of the first is higher: 206% for the first, 6.21% for the second.

B5 and B6 cannot be ordered by “In vitro activity relative to native peptide (%) vs. Glucagon” value: < 0.1% for the first, < 0.1% for the second.

Compared with B7, B8 is higher in “In vitro activity relative to native peptide (%) vs. Glucagon” value: < 0.1% for the first, 4.9% for the second.

B9 and B10 cannot be ordered by “In vitro activity relative to native peptide (%) vs. Glucagon” value: < 0.1% for the first, < 0.1% for the second.

B11 and B12 cannot be ordered by “In vitro activity relative to native peptide (%) vs. Glucagon” value: < 0.1% for the first, < 0.1% for the second.

B13 and B14 cannot be ordered by “In vitro activity relative to native peptide (%) vs. Glucagon” value: < 0.1% for the first, < 0.1% for the second.

With B15 the “In vitro activity relative to native peptide (%) vs. Glucagon” value was < 0.1%.
